Results from patent US20220185894A1 (F STAR THERAPEUTICS, published 2022).

Assays:
[1] = molecular target: T1, human PD-L1 Fc (R&D Systems, 156-B7) (human, UniProt Q9NZQ7 19-239); assay: SPR, BIAcore T200; mAb captured on Protein L, PD-L1 Fc injected
T1 construct: Bought protein; not shown: Fc tag of the bought fusion protein

[2] = molecular target: T2, recombinant Fc-tagged human LAG-3 (R&D Systems, 2319-L3-050) (human, UniProt P18627 23-450); assay: SPR, mAb captured on Protein L, human LAG-3 Fc injected (from 0.5 nM)
T2 construct: Bought protein; also called LAG-3 Fc; human LAG-3-Fc; not shown: Fc tag of the bought fusion protein
T2 sequence: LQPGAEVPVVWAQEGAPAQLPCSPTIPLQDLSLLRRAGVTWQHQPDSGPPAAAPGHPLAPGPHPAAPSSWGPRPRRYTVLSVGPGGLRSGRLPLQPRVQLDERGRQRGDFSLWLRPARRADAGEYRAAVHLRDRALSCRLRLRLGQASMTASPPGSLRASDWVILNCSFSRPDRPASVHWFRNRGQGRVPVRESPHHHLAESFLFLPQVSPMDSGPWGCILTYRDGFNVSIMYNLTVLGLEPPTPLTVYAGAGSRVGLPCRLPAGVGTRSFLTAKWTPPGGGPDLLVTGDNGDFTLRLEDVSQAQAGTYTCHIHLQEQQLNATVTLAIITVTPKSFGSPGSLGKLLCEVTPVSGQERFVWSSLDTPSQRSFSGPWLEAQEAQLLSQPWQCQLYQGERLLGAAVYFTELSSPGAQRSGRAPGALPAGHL
Procedure: Protein L (Thermo, 21189) was immobilized on flow cells 1 and 2 of a Series S CM5 chip (GE Healthcare, BR-1005-30) by amine coupling (GE Healthcare, BR-1000-50) to a surface density of 2000 RU by following the manufacturer's instructions for the BIAcore T200 instrument. […] The association time was 3 min and the dissociation time was 6 min. Running buffer was HBS-P (GE Healthcare, BR-1003-68). Both flow cells were regenerated by injecting 10 mM sodium hydroxide (NaOH) at a flow rate of 100 μl/min for 20 seconds. The data were analysed by double referencing against the blank flow cell.
The binding kinetics were fit with a 1:1 Langmuir model to generate binding association (kₐ) and dissociation (kd) rates. Equilibrium binding constants (KD) were calculated by dividing the dissociation rate by the association rate for each sample. Data analysis was performed with BiaEvaluation software version 3.2.

T1 sequence (Q9NZQ7 19-239 limits assumed): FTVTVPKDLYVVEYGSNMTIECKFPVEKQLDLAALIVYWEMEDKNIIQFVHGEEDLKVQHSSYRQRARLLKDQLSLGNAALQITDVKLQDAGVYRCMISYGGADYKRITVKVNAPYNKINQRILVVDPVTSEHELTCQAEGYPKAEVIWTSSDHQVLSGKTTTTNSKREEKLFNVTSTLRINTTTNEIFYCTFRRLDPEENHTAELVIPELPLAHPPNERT

B1: anti-human PD-L1 mAb 84G09 with LALA mutation (antibody, human IgG1, kappa, L234A L235A)
heavy: not shown
light: DIQMTQSPSSLSASVGDRVTITCRASQSISSYLNWYQQKPGKAPKPLIYVASSLQSGVPSSFSGSGSGTDFTLTISSLQPEDFATYYCQQSYSNPITFGQGTRLEIKRTVAAPSVFIFPPSDEQLKSGTASVVCLLNNFYPREAKVQWKVDNALQSGNSQESVTEQDSKDSTYSLSSTLTLSKADYEKHKVYACEVTHQGLSSPVTKSFNRGEC
notes: Human IgG1 with LALA; also called 84G09LALA; 84G09 LALA
Kd [1]: 1.2 nM | koff [1]: 0.00046 s⁻¹ | kon [1]: 380000 M⁻¹ s⁻¹ | binding result [2]: no binding
